The subject of the data set is cTSN (Tudor staphylococcal nuclease) (Caenorhabditis elegans). The data set is described as follows: filter binding. The conditions noted are these: 50 mM HEPES pH 7.0, 250 mM NaCl, 5 mM beta-mercaptoethanol, 2 mM EDTA, 30 min, room temperature, cTSN 0-2 uM.
Where [1] appears, read: inosine (A-to-I edited, positions in Figure 3).

In general, Kd refers to the equilibrium constant for the complex coming apart. Low readings indicate tighter binding, high ones weaker binding.

Consider “CAGUCACCCAUAAAGUAGAAAGCACUACUGUGGGUAGUGUUUCCUACUUUAUGGAUGAGUG [pre-miR142]”, for which the Kd is 0.136 µM. This lies in the sub-micromolar range.

“CAGUCACCCAUAAAGUAGAAAGCACUAC / GUAGUGUUUCCUACUUUAUGGAUGAGUG [pre-miR142Δloop]” had a Kd of 0.236 µM.

“ACUGGACAAAUACUCCGAGG / CCUCGGAGUAUUUGUCCAGU [dsRNA 20 bp]” gave a dissociation constant (Kd) of 0.393 µM. This Kd is about 1.7-fold higher than that of the sequence before.

“CAGUCACCCAUAAAGUAGAAAGCACUAC / GUAGUGUUUCCUACUUUAUGGAUGAGUG [pre-miR142Δloop-AtoI]” returned a Kd under setting [1] of 0.0683 µM.

In turn, ACUGGACAAAUACUCCGAGG [ssRNA 20 nt] came in with a Kd of 0.767 µM.

Sequence “CAGUCACCCAUAAAGUAGAAAGCACUACUGUGGGUAGUGUUUCCUACUUUAUGGAUGAGUG [pre-miR142-AtoI]” registered a dissociation constant (Kd) under setting [1] of 0.0746 µM. This lies in the double-digit nanomolar range.
